Measurements: paper PMC10397244, “BIK1 protein homeostasis is maintained by the interplay of different ubiquitin ligases in immune signaling” (Nature Communications, 2023)
Blank lines part the entries; values can stand above or below the binder they belong to.

Key:
Experiment in all cases: pull-down; GST fusion protein or GST immobilised on GSH beads, incubated with purified recombinant protein; 20 mM Tris-HCl pH 7.5, 150 mM NaCl, 3 mM EDTA, 0.5% Triton X-100, 4 C, 2 h; immunoblot
Settings in all cases: both partners purified
His-FLAG-RGLG1 = target: T1, His-FLAG-RGLG1 (Arabidopsis thaliana, UniProt Q9SS90 1-489)
T1 construct: RGLG1, Arabidopsis; CDS subcloned into modified pET28a; also called RING DOMAIN LIGASE 1; source: E. coli BL21, purified (Ni-NTA); not shown: FLAG, N-terminal, kept
T1 sequence (looked up): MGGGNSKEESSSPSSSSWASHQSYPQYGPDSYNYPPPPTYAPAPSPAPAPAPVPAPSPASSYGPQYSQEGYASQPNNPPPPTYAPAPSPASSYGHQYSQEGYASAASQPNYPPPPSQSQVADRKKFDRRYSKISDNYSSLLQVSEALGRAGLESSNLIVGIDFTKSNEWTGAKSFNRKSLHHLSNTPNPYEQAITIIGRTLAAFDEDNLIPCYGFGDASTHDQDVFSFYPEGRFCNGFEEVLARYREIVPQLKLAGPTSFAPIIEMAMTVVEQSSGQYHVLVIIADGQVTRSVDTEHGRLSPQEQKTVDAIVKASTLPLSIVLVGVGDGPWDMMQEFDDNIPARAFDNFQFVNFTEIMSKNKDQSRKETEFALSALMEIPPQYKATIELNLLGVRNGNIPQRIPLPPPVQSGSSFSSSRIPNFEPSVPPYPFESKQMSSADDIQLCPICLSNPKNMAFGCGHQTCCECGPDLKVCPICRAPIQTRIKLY

[1] = target: T2, RGLG2 (recombinant, in vitro; tag of the experiment not told) (Arabidopsis thaliana, UniProt Q9LY87 1-468)
T2 construct: RGLG2, Arabidopsis; CDS subcloned into His-, GST- or MBP-tag vectors; also called RING DOMAIN LIGASE 2; source: E. coli BL21, purified
T2 sequence (looked up): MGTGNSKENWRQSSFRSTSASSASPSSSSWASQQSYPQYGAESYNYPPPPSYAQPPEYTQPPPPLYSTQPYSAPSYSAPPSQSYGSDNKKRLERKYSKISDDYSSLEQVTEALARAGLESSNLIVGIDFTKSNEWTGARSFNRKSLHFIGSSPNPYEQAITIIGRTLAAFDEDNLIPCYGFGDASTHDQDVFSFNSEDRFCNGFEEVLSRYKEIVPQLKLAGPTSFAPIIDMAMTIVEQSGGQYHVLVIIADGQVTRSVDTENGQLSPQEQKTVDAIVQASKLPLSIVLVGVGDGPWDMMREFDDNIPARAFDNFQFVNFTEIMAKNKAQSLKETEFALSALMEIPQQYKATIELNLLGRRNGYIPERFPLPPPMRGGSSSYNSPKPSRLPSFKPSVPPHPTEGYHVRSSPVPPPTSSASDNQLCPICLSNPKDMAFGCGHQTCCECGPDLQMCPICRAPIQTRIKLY

GST-RGLG2 = target: T3, GST-RGLG2 (Arabidopsis thaliana, UniProt Q9LY87 1-468)
T3 construct: RGLG2, Arabidopsis; CDS subcloned into a GST-tag vector; also called RING DOMAIN LIGASE 2; source: E. coli BL21 (recombinant); immobilised on GSH beads; not shown: GST, N-terminal, kept
T3 sequence (looked up): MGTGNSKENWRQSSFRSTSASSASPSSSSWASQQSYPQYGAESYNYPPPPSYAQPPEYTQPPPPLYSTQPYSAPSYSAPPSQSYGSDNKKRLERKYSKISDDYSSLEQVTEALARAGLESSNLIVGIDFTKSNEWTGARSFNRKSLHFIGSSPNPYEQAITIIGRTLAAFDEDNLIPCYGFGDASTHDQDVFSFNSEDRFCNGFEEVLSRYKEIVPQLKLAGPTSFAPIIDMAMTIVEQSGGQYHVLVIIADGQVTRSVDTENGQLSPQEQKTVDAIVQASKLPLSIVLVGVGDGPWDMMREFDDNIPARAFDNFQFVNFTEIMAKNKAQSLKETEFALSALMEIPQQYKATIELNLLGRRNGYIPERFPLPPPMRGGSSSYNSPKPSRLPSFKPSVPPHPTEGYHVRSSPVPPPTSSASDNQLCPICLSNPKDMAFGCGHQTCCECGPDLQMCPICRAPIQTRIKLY

[2] = target: T4, RGLG1 (recombinant, in vitro; tag of the experiment not told) (Arabidopsis thaliana, UniProt Q9SS90 1-489)
T4 construct: RGLG1, Arabidopsis; CDS subcloned into His-, GST- or MBP-tag vectors; also called RING DOMAIN LIGASE 1; source: E. coli BL21, purified
T4 sequence (looked up): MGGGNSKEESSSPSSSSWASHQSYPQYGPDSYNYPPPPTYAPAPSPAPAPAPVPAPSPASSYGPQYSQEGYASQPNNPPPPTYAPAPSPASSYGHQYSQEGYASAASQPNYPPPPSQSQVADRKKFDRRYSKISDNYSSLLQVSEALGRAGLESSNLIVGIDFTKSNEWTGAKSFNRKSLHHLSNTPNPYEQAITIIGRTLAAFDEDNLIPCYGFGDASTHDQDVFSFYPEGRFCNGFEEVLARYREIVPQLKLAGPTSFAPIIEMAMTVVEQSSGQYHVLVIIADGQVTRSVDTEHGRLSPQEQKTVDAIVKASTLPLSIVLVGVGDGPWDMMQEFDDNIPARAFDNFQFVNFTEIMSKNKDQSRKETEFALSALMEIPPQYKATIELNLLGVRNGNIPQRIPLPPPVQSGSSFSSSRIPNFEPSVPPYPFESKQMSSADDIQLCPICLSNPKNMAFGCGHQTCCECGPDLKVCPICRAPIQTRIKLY

- binding result (His-FLAG-RGLG1): binds
- binding result [1]: binds
B1: GST-BIK1 (natural protein, Arabidopsis thaliana, UniProt O48814 1-395, looked up)
chain: MGSCFSSRVKADIFHNGKSSDLYGLSLSSRKSSSTVAAAQKTEGEILSSTPVKSFTFNELKLATRNFRPDSVIGEGGFGCVFKGWLDESTLTPTKPGTGLVIAVKKLNQEGFQGHREWLTEINYLGQLSHPNLVKLIGYCLEDEHRLLVYEFMQKGSLENHLFRRGAYFKPLPWFLRVNVALDAAKGLAFLHSDPVKVIYRDIKASNILLDADYNAKLSDFGLARDGPMGDLSYVSTRVMGTYGYAAPEYMSSGHLNARSDVYSFGVLLLEILSGKRALDHNRPAKEENLVDWARPYLTSKRKVLLIVDNRLDTQYLPEEAVRMASVAVQCLSFEPKSRPTMDQVVRALQQLQDNLGKPSQTNPVKDTKKLGFKTGTTKSSEKRFTQKPFGRHLV
notes: BIK1, Arabidopsis; pGEX-BIK1 (modified pGEX-6P-1); also called BIK1 fused to a GST tag; source: E. coli BL21, purified; immobilised on GSH beads; not shown: GST, N-terminal, kept

- binding result (GST-RGLG2): binds
B2: His-FLAG-PUB25 (natural protein, Arabidopsis thaliana, UniProt Q9LT79 1-421, looked up)
chain: MPRNIEPLDLGIQIPYHFRCPISLELMQDPVTVCTGQTYDRASIESWVSIGNNTTCPVTRAPLSDFTLIPNHTLRRLIQEWCVANRSNGVERIPTPKQPADPTSVRALLSQASAITGTHVSVRSRAAALRRLRGFARDSDKNRVLIAAHNATEILIKILFSETTSSELVSESLALLVMLPITEPNQFVSISSDPGRVEFLTRLLFDSSIETRVNAAALIEIVSTGTKSADLKGSISNSESVFEGVLDLLRNPISSRRALKIGIKTLFALCSVKSTRHIAITAGAPEILIDRLAADFDRCDTERALATVELLCRTPEGCAAFGEHALTVPLLVKTILRVSDRATEYAAGALLALCTAEERWREEAAGAGVVVQLLLMVQSECTERAKKKAQKLLKLLRDSWPDYNSFANSDDFGCSSQVVPF
notes: PUB25, Arabidopsis; CDS subcloned into modified pET28a; also called PLANT U-BOX PROTEIN 25; source: E. coli BL21, purified (Ni-NTA); not shown: FLAG, N-terminal, kept

- binding result [2]: binds
B3: PUB25 (recombinant, in vitro; tag of the experiment not told) (natural protein, Arabidopsis thaliana, UniProt Q9LT79 1-421, looked up)
chain: MPRNIEPLDLGIQIPYHFRCPISLELMQDPVTVCTGQTYDRASIESWVSIGNNTTCPVTRAPLSDFTLIPNHTLRRLIQEWCVANRSNGVERIPTPKQPADPTSVRALLSQASAITGTHVSVRSRAAALRRLRGFARDSDKNRVLIAAHNATEILIKILFSETTSSELVSESLALLVMLPITEPNQFVSISSDPGRVEFLTRLLFDSSIETRVNAAALIEIVSTGTKSADLKGSISNSESVFEGVLDLLRNPISSRRALKIGIKTLFALCSVKSTRHIAITAGAPEILIDRLAADFDRCDTERALATVELLCRTPEGCAAFGEHALTVPLLVKTILRVSDRATEYAAGALLALCTAEERWREEAAGAGVVVQLLLMVQSECTERAKKKAQKLLKLLRDSWPDYNSFANSDDFGCSSQVVPF
notes: PUB25, Arabidopsis; CDS subcloned into His-, GST- or MBP-tag vectors; also called PLANT U-BOX PROTEIN 25; source: E. coli BL21, purified
